From PMC9770967, “Native holdup (nHU) to measure binding affinities from cell extracts” (Science Advances, 2022)

How the values were obtained:
Type in all cases: binding, human
[1] = system: DLG1_PDZ_1; test: nHU-MS, DLG1_PDZ_1 bait, total Jurkat extracts (Exploris MS)
Text: (§1) To further establish the repeatability and robustness of the nHU-MS assay, we repeated the experiments using a different mass spectrometer and six different PDZ domain baits taken from SCRIB (PDZ_1 and PDZ_2), discs large MAGUK scaffold protein 1 (DLG1, PDZ_1, and PDZ_2), Tax1 binding protein 3 (TAX1BP3), and SNX27 (fig. S3B and table S1). […] Of the studied baits, the PDZ domain of SNX27 turned out to be the most promiscuous with 103 statistically significant interaction partners (while 180 SNX27 binding partners were identified in total on the basis of the three independent nHU-MS experiments).
(§2) For saturating streptavidin resin with biotinylated peptides or biotin, 50 μl of streptavidin resin was mixed with biotin or peptide at 40 to 60 μM concentration in 6 to 6.5 resin volume for 60 min. To saturate streptavidin resin with biotinylated proteins, 50 μl of streptavidin resin (Streptavidin Sepharose High Performance, Cytiva) was mixed with biotinylated MBP or MBP-PDZ at 40 to 50 μM concentration in 20× resin volume for 60 min. After saturation, resins were washed a single time [10 resin volume, holdup buffer: 50 mM tris (pH 7.5), 300 mM NaCl, and 1 mM TCEP, 0.22-μm filtered] and were depleted with biotin (10 resin volume, 10 min, holdup buffer supplemented with 100 μM biotin). Last, resins were washed two times (10 resin volume, holdup buffer).
(§3) For single-point nHU experiments carried out at ~10 μM bait concentration, 50 μl of saturated streptavidin resin was mixed with 200 μl of cell lysate (2 mg/ml). […]
(§4) Samples were analyzed using an Ultimate 3000 nano-RSLC coupled in line via a nano-electrospray ionization source, with an LTQ-Orbitrap ELITE mass spectrometer (Thermo Fisher Scientific, San Jose, CA) or with the Orbitrap Exploris 480 mass spectrometer (Thermo Fisher Scientific, Bremen, Germany) equipped with a high field asymmetric ion mobility spectrometry (FAIMS) module. […]

[2] = system: SCRIB_PDZ_2; test: nHU-MS, SCRIB_PDZ_2 bait, total Jurkat extracts (Exploris MS)
Text: as §1, §2
(§5) For single-point nHU experiments carried out at ~10 μM bait concentration, 50 μl of saturated streptavidin resin was mixed with 200 μl of cell lysate (2 mg/ml). Titration experiments were carried out by mixing control and bait-saturated resin and keeping the total resin volume constant; e.g., ~5 μM bait concentration can be achieved by mixing 25 μl of bait-saturated streptavidin resin with 25 μl of control resin and 200 μl of cell lysate (2 mg/ml). Control and bait-saturated resins were prepared in larger amounts, and a serial dilution was prepared with these presaturated resins to achieve different resin ratios.
(§6) Unless specified elswhere, the nHU mixture was incubated at 4°C for 2 hours. After the incubation ended, the resin was separated from the supernatant by a brief centrifugation (15 s, 2000 g). Then, half of the supernatant was removed by pipetting without any delay to avoid any resin contamination; e.g., 100 μl of supernatant is collected if 200 μl of cell lysate was used as analyte. Alternatively, the supernatant can be centrifuged an additional time to clarify it further, removing any possible resin contamination. In principle, the separation of the supernatant should be as fast as possible since any delay can perturb the equilibrium. […] Alternatively, the resin can be separated from the supernatant using filter plates (e.g., various products of Millipore, Burlington, MA) or spin columns (e.g., Pierce spin cups—cellulose acetate filter from Thermo Fisher Scientific, Waltham, MA) to achieve faster separation.
(§7) The nHU samples were precipitated with trichloroacetic acid (TCA) 20% overnight at 4°C and centrifuged at 14,000 rpm for 10 min at 4°C. The protein pellets were washed twice with 1 ml of cold acetone and air-dried. […]
as §4

[3] = system: DLG1_PDZ_2; test: nHU-MS, DLG1_PDZ_2 bait, total Jurkat extracts (Exploris MS); conditions: Jurkat extract
Text: as §1, §2, §3, §4

[4] = system: SNX27_PDZ; test: nHU-MS, SNX27_PDZ bait, total Jurkat extracts, series 2 (Exploris MS); conditions: Jurkat, series 2, n = 3
Text: as §1, §2, §5, §6, §7, §4

[5] = system: SCRIB_PDZ_1; test: nHU-MS, SCRIB_PDZ_1 bait, total Jurkat extracts (Exploris MS)
Text: as §1, §2, §5, §6
The nHU samples were precipitated with trichloroacetic acid (TCA) 20% overnight at 4°C and centrifuged at 14,000 rpm for 10 min at 4°C. The protein pellets were washed twice with 1 ml of cold acetone and air-dried. The protein extracts were solubilized in 8 M urea, reduced with 5 mM TCEP for 30 min, and alkylated with 10 mM iodoacetamide for 30 min in the dark. Double digestion was performed at 37°C with 500 ng of endoproteinase Lys-C (Wako, Richmond, USA) for 4 hours, followed by fourfold dilution and an overnight digestion with 500 ng of trypsin (Promega, Charbonnieres les Bains, France). Peptide mixtures were then desalted on a C18 spin-column and dried on a speed vacuum.
as §4

[6] = system: TX1BP3_PDZ; test: nHU-MS, TX1BP3_PDZ (TAX1BP3) bait, total Jurkat extracts (Exploris MS); conditions: nHU-MS, total Jurkat extract
Text: as §1, §2, §5
Unless specified elswhere, the nHU mixture was incubated at 4°C for 2 hours. After the incubation ended, the resin was separated from the supernatant by a brief centrifugation (15 s, 2000 g). Then, half of the supernatant was removed by pipetting without any delay to avoid any resin contamination; e.g., 100 μl of supernatant is collected if 200 μl of cell lysate was used as analyte. […]
as §4

B1: NBDY: Negative regulator of P-body association (protein, UniProt A0A0U1RRE5 1-68, looked up)
Negative regulator of P-body …: MGDQPCASGRSTLPPGNAREAKPPKKRCLLAPRWDYPEGTPNGGSTTLPSAPPPASAGLKSHPPPPEK
In the case of B1, the “Ratio DLG1_1/MBP” value ([1]; DLG1_PDZ_1, total Jurkat extract) is reported as 1.036, the BI ([1]; DLG1_PDZ_1 bait vs MBP, total Jurkat extract) is reported as -0.03605 and the “Difference log2” value ([1]; DLG1_PDZ_1 vs MBP, total Jurkat extract) is reported as 0.0511. The “Ratio SCRIB_2/MBP” value ([2]; nHU-MS, SCRIB_PDZ_2, total Jurkat extract) was 1.014, the BI ([2]; nHU-MS, SCRIB_PDZ_2 bait vs MBP, total Jurkat extract) was -0.01381 and the “Difference log2” value ([2]; nHU-MS, SCRIB_PDZ_2 vs MBP, total Jurkat extract) was 0.01978. The “Difference log2” value ([3]; DLG1_PDZ_2 bait vs MBP) was 0.1631, the “Ratio DLG1_2/MBP” value ([3]; DLG1_PDZ_2 bait vs MBP) was 1.12 and the BI ([3]; DLG1_PDZ_2 bait) was -0.1197. The BI [4] was 0.08384, the “Difference log2” value [4] was -0.1263 and the “Ratio SNX27/MBP” value [4] was 0.9162. For the same molecule, the pKd ([4]; apparent, not filtered for significance) was 3.962, the “Ratio SCRIB_1/MBP” value ([5]; nHU-MS, SCRIB_PDZ_1, total Jurkat extract) was 1.029 and the BI ([5]; nHU-MS, SCRIB_PDZ_1 bait vs MBP, total Jurkat extract) was -0.02908. The “Difference log2” value ([5]; nHU-MS, SCRIB_PDZ_1 vs MBP, total Jurkat extract) was 0.04136, the BI ([6]; TX1BP3_PDZ bait vs MBP) was 0.0117 and the pKd ([6]; TX1BP3_PDZ bait, not filtered for significance (pKdsign N/D)) was 3.0735. For the same molecule, the “Difference log2” value ([6]; TX1BP3_PDZ vs MBP) was -0.01698 and the “Ratio TX1BP3/MBP” value ([6]; TX1BP3_PDZ) was 0.9883.

B2: EWSR1 (protein, UniProt Q01844 1-656, looked up)
RNA-binding protein EWS: MASTDYSTYSQAAAQQGYSAYTAQPTQGYAQTTQAYGQQSYGTYGQPTDVSYTQAQTTATYGQTAYATSYGQPPTGYTTPTAPQAYSQPVQGYGTGAYDTTTATVTTTQASYAAQSAYGTQPAYPAYGQQPAATAPTRPQDGNKPTETSQPQSSTGGYNQPSLGYGQSNYSYPQVPGSYPMQPVTAPPSYPPTSYSSTQPTSYDQSSYSQQNTYGQPSSYGQQSSYGQQSSYGQQPPTSYPPQTGSYSQAPSQYSQQSSSYGQQSSFRQDHPSSMGVYGQESGGFSGPGENRSMSGPDNRGRGRGGFDRGGMSRGGRGGGRGGMGSAGERGGFNKPGGPMDEGPDLDLGPPVDPDEDSDNSAIYVQGLNDSVTLDDLADFFKQCGVVKMNKRTGQPMIHIYLDKETGKPKGDATVSYEDPPTAKAAVEWFDGKDFQGSKLKVSLARKKPPMNSMRGGLPPREGRGMPPPLRGGPGGPGGPGGPMGRMGGRGGDRGGFPPRGPRGSRGNPSGGGNVQHRAGDWQCPNPGCGNQNFAWRTECNQCKAPKPEGFLPPPFPPPGGDRGRGGPGGMRGGRGGLMDRGGPGGMFRGGRGGDRGGFRGGRGMDRGGFGGGRRGGPGGPPGPLMEQMGGRRGGRGGPGKMDKGEHRQERRDRPY
For B2, the “pKapp (nHU-MS)” value ([2]; SCRIB_PDZ_2&Jurkat (Exploris)) was 4.691 and the “pKapp (nHU-MS)” value ([5]; SCRIB_PDZ_1&Jurkat (Exploris)) was 4.689.
